Test results taken from patent US20100093076A1, “SOLUBLE IL-27 RECEPTOR” (priority 2006, published 2010).
“And” between values parts separate entries of the source, which are not always exact repeats. Identical values can stand only once.

Legend:
single-chain mouse IL-27 = target: T1, single-chain mouse IL-27 (Mus musculus, UniProt O35228+Q8K3I6); assay: IL-27 inhibition of IL-2 production neutralized by IL-27RA Fc (third set of experiments); assay type: cell-based; details: + IL-27 (10 ng/ml)
T1 sequence (O35228+Q8K3I6 with tags, fused parts or gaps): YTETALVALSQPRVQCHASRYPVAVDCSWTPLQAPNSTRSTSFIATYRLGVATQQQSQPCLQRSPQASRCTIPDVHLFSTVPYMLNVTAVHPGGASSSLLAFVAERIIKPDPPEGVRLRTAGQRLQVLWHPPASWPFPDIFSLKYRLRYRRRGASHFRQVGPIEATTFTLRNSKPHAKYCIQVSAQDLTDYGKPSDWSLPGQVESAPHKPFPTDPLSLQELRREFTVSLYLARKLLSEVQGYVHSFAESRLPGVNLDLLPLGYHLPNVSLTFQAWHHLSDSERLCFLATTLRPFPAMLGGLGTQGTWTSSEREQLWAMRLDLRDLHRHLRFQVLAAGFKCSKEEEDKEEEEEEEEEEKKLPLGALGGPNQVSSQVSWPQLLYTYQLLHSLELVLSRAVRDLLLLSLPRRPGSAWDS
Method: Naïve mouse CD4 T-cells were isolated as described above. For testing of the neutralizing mAbs, the naïve CD4 T cells were preincubated for 30 minutes at 37 degrees C. with graded concentrations (60, 30, 15, 7.5, 3.75, 1.875.micro.g/ml) of either neutralizing rat anti-mouse IL27RA mAb (each mAb tested separately), rat IgG1 isotype control mAb, rat IgG2a isotype control mAb, or no mAb. […] The CD4 T cells (4×10^5/well) were then transferred to anti-CD3 coated tissue culture plates. Single-chain mouse IL-27 (10 ng/ml) was then added to the plates. Duplicate plates were set up for all experimental conditions. The plates were then cultured at 37 degrees for up to 72 hours.
For testing of the soluble receptor, single-chain mouse IL-27 (10 ng/ml) was preincubated for 30 minutes at 37 degrees C. with either IL27RAm(mFc1) (10.0 and 5.0.micro.g/ml), IL27RA-Fc5, mouse Fc1 protein (10.0 and 5.0.micro.g/ml), human Fc5 protein (10.0 and 5.0.micro.g/ml), or no recombinant protein in wells of the anti-CD3 coated plates. 4×10^5 CD4^+ CD62L high cells were added to the wells. Duplicate plates were set up for all experimental conditions. The plates were then cultured at 37 degrees for up to 72 hours. Cell supernatants were collected from one set of plates at 48 hours and from the duplicate set of plates at 72 hours. The supernatants were stored frozen at −80° C.

[1] = test system: acute graft-vs-host disease; assay: Mouse model of acute graft-vs-host disease; assay type: in vivo; details: acute GVHD
Method: Efficacy of IL-27 antagonists was assayed in a mouse model of acute graft-vs-host disease (Durie et al., J. Clin. Invest. 94:1333-1338, 1994). Parental mice (C57BL/6; n=12) were euthanized, and their spleens were collected. The pooled spleens were smashed using two glass slides to dissociate splenic cells. Lysis buffer was added to the splenocyte suspension to remove red blood cells. The cells were washed in RPMI 1640 (10% FBS) medium and resuspended in an appropriate amount of PBS to make a cell concentration of 300 million cells/ml. Protein treatments were administered by intraperitoneal injection every other day beginning on day-1 and continuing until day 15. Dexamethasone (DEX) was administered by injection daily on days 0 through 6. On day 0, 75 million donor splenic lymphocytes from B6 mice (250.micro.1 per injection) were injected intravenously into recipient mice (C57BL/6×DBA/2 F1 (BDF1); n=10 per group) mice. Mice were monitored 3 times a week for changes in body weight and any signs of moribundity. Mice that lost >20% of their initial body weight were euthanized. Otherwise, mice were sacrificed 18 days after the cell transfer. Spleens were collected, and a CTL-specific lysis assay using P815 cells was performed as a quantitative measurement of acute GVHD. Furthermore, spleens were stained for T- and B-cell markers, including MHC class I markers (H2^b and H2^d) to look at donor/recipient cell ratio (acute GVHD spleen cells are mostly donor cells). Sera were collected to measure serum level of IgG1, IgG2a, and IgE by ELISA, and cytokine and chemokine levels using a commercially available kit (Luminex Corporation, Austin, Tex.).

[2] = Pharmacokinetics of soluble receptors in female C57B1/6 mice (serum ELISA, noncompartmental analysis); assay type: in vivo, mouse; details: 100 μg; for AUCINF: extrapolated to infinity
Method: Studies were performed to evaluate the pharmacokinetics of the mouse (IL-27RAm(mFc1)) and human (IL-27RA-Fc5) soluble receptors in female C57B1/6 mice.
Serum was generated from each sample and analyzed by a qualified enzyme-linked immunosorbant assay (ELISA). The resulting mean serum concentration versus time profiles were then subjected to noncompartmental pharmacokinetic analyses. The following pharmacokinetic parameters were calculated: C0 and Cmax (extrapolated concentration at time zero and maximum serum concentration, respectively), Tmax (time to achieve maximum concentration), t1/2 λz (terminal half-life), AUC0-t (area under the concentration versus time curve from time zero to the last measurable time point), AUCINF (area under the concentration versus time curve extrapolated to infinity), C1 or C1/F (clearance or clearance divided by bioavailable fraction, respectively), VSS or VZ/F (steady state volume of distribution or volume of distribution divided by the bioavailable fraction, respectively), and F (bioavailable fraction).

P815 cells = assay: CTL-specific lysis assay with splenocytes of GVHD mice; assay type: cell-based, mouse; details: splenocytes of treated GVHD mice against calcein-labeled P815 cells; versus PBS group
Method: Efficacy of IL-27 antagonists was assayed in a mouse model of acute graft-vs-host disease (Durie et al., J. Clin. Invest. 94:1333-1338, 1994). Parental mice (C57BL/6; n=12) were euthanized, and their spleens were collected. The pooled spleens were smashed using two glass slides to dissociate splenic cells. Lysis buffer was added to the splenocyte suspension to remove red blood cells. The cells were washed in RPMI 1640 (10% FBS) medium and resuspended in an appropriate amount of PBS to make a cell concentration of 300 million cells/ml. Protein treatments were administered by intraperitoneal injection every other day beginning on day-1 and continuing until day 15. Dexamethasone (DEX) was administered by injection daily on days 0 through 6. […] Mice were monitored 3 times a week for changes in body weight and any signs of moribundity. […] Spleens were collected, and a CTL-specific lysis assay using P815 cells was performed as a quantitative measurement of acute GVHD. […]
For CTL assay, P815 cells (a tumor cell line from mice with the same MHC class as DBA2) were labeled with calcein, then splenocytes from each experimental animal were added to the calcein-labeled P815 cells at effector (splenocytes):target (P815) ratios of 100:1, 33:1, and 10:1. Four hours after incubation at 37° C., supernatants were collected and fluorescence was measured (485 nm/535 nm).

IL-2 concentration (single-chain mouse IL-27; 48 hr, protein conc. 5 (μg/ml; Fc controls in molar equiv.)): 5784.11 pg/mL | IL-2 concentration (single-chain mouse IL-27; 48 hr, protein conc. 10 (μg/ml; Fc controls in molar equiv.), listed as hIL-27RA): 5774.94 pg/mL and 5333.6 pg/mL | IL-2 concentration (single-chain mouse IL-27; 72 hr, protein conc. 5 (μg/ml; Fc controls in molar equiv.)): 1869.62 pg/mL | IL-2 concentration (single-chain mouse IL-27; 72 hr, protein conc. 10 (μg/ml; Fc controls in molar equiv.), listed as hIL-27RA): 28607.63 pg/mL and 17481.17 pg/mL
Substance: human IL-27RA-Fc5: Extracellular domain of human IL27RA (amino acids 1 to 512 of SEQ ID NO:3) fused to Fc5, effector minus human gamma1 Fc; SEQ ID NO:16
colon length shortening [1]: did prevent colon length shortening | splenomegaly [1]: did not prevent splenomegaly | host spleen cells, CD4+T cells, and Treg cells ([1]; BDF1 recipients, day 18): maintained host spleen cells, CD4+T cells, and Treg cells | Body weight loss ([1]; versus PBS control group): not severe and was significantly less than in the PBS control group | IL-2 level ([1]; serum, arrows, key not given): ↑↑↑ | IL-5 level ([1]; serum, arrows, key not given): ↑↑ | IL-6 level ([1]; serum, arrows, key not given): ↓↓↓ | IgE level ([1]; serum, arrows, key not given): ↑ | IgG1 level ([1]; serum, arrows, key not given): ↑↑ | IgG2A level ([1]; serum, arrows, key not given): ↑↑ | AUC0-120 ([2]; IP): 1310 µg·h/mL | Cl/F ([2]; IP): 0.0725 mL/h | Tmax ([2]; IP): 3 h | t1/2 λz (terminal half-life) ([2]; IP): 28.3 h | Cmax ([2]; IP, mouse serum): 35200 ng/mL | AUCINF ([2]; IP): 1380 µg·h/mL | AUC0-120 ([2]; IV): 1400 µg·h/mL | Cl ([2]; IV): 0.0664 mL/h | Vss ([2]; IV): 2.54 mL | t1/2 λz (terminal half-life) ([2]; IV): 34.9 h | Co (extrapolated concentration at time zero) ([2]; IV, mouse serum): 122 µg/mL | AUCINF ([2]; IV): 1510 µg·h/mL | AUC0-120 ([2]; SC): 1130 µg·h/mL | Cl/F ([2]; SC): 0.0828 mL/h | Tmax ([2]; SC): 6 h | t1/2 λz (terminal half-life) ([2]; SC): 29.3 h | Cmax ([2]; SC, mouse serum): 21000 ng/mL | AUCINF ([2]; SC): 1210 µg·h/mL | CTL activity (P815 cells): reduced CTL activity compared to the PBS group
